From the DeepSol protein solubility set

test: soluble on expression in E. coli; label from the status in PepcDB or PDB records

Sequence	soluble on expression in E. coli
MGSDKIHHHHHHMSKKFNCSIKRIRFDENYRPADSTRLTTNFANLARGEHREENLRKTLRMINNRFNALAHWDNPTADRYSVEVDIISIDMDVAGNGHTFPVIETLKTTIVDHKENTRIDGMMGNSFSSYVRDYDFSVVLPEHFNNHSTSPVSAPPEDFGDLHGKLFQYLLNSEAYKAQFNNKLVICLSVSTSKTYHRTTNQHPVLGVEYKQDDYSLTDDYFHKMGLTVRYFMPANSAAPLAFYFAGDLLTDYTDLELISAISTMETFQKIYRPEIYNANATAGEVYQPSLKYQDYSLTQIVYDRAERSQMAVKQGKFTEEQFIKPYQAILEEWAASYDVASKKNLHQ	not soluble
MGSDKIHHHHHHMSKPSPRHLWHVQPGSNVITHPLKQSHYLNVELMSLEIVAEYPRPPALVACSDHVIVEALGTRICETHDCLRVLETFHPPTYYLPPKAMRKDLLIRSRRSSFCEWKGIANYWDLVIADKRLEGAIWSYPDPTPTFRALTGWYALYPGRMDHCSVNGETVIPQPGQFYGGWITSQVVGPFKGDPAHPQLI	not soluble
MGSDKIHHHHHHMSKRLMPSTTALQCFEAAARHLSFTRAAQELHLTQSAVSKQVAQLEDMLSHSLFQRIRRRLHLTPAGALYLTEVNKILTQIDISSRYILSYGDETEVLRIATQPTFGARWLVPRLKGFGDRYPRIHLDVRNELEPFDLVQAKADVAFFFGQGTWPGATCIELFSEEVVPVCSPQLLASHRFDSAQALTEHRLLQCVSRPEAWHEWFLGLGLHSQNSYHGPRFDTFYLCIRAAISGCGIALIPRYLVAEELSEGKLVVAWDHPVASNGRHFIAHAEHAAEVPKIRAFVQWIRERVAEGD	not soluble
MGSDKIHHHHHHMSLALQYFKALSDETRLRLIHVLNRHELSVNELVSILEMGQSRVSRHLKILTGAGLLTSRRDGLWVFYSAAAEGDGRAFLDAVTPFVTTDMVLQADLDMAQKIIEERALKTRQFFNAIAEDWDELNREVLGGFDLAGAVAEAMPQCETAVDLGCGTGSVIERMLQRSQQVIGVDGSPRMLELARRRFVEGAERVSLRIGELDHLPLRDGEADFASINMVLHHLSDPGVALGEIRRVLRLGGQLMVTDFDRHDNERMRSDYGDRWLGFEGVQLEGLLREAGFTVRECRRQGVAKGLALHLMLAEKTQQ	not soluble
MGSDKIHHHHHHMSLANRTTSSAYRLFNLRLESKTLLSPSLARCVFTGPEVRQMKLDAPDQRIKLLFASESGELTPMTVSDTWYQDYLALPRERRPILRTYTLRSVSRDLQQATIDFVLHGDTGPASSWAGHAKPGDALQIVAPNAEADGASGGYEWAPHDGVEQVLLIADETALPAAMGILEQLATQPSPPSVQAFFEVPKAADCVTPSDFPFAQIHWLPREETGSTIWGERLLYAVQQDVKIPASACINRDDIAQETPEDELLWERATAHRPFYAWVAGESSAIKRLRRYLLDERHLDKETINFMAYWSHR	not soluble
MGSDKIHHHHHHMSLASFNPRVARLATPPIPSVFGWGRAYDAAAGPLIDLSQAAPGHPPHADLLAWLAQAAGSAEACGYGAIEGELVLRRAYCTHLSELYGAAFTPEQIHITAGANQAFICAAMALAGAGERIALTDPFYFNHDTTLAMLGIETVALPCDSDNGFLPDLDRAEQVVKSGIKALALVTPNNPTGAVYPKELLADLYRLCRAHGVWLIVDETYRDFLNPEFGRPHELFSQPDWPEGLIQIYSFSKSFAIPGHRLAAICAGGPVVEQIAKIMDNLQICAPRAAQIALAKALPVLDGWRAENAAEIARRTVALRRAFDLVPQWHLASIGAYFAFARHPFGQAASIDVAEQLARRAGILAVPGGFFGSRQEGYLRLAFANVDCPTIETLPDRLRTFTLAG	not soluble
MGSDKIHHHHHHMSLEAPDLLRIRALPLFEAVNDGAFDRLMRGAFLQRFPRGSQLTTQGQPDNFLFVLLEGAIELEGSSSDRESTLALLWPSASLCLASIVLDGPSLMTARTTKGSLILMVPGDAFRQALEEDAGLGRAVAEELAGCFSGAVRSLKNNKLRTARERLVSYLLAQHQRQGGGAVVKLPCRKRVLASLLGMTPENLSRAFASLGPHGVEIDGSTVTLREPEGLAQLARPDPMIDNPIGESFSQAERERRRGGRTAIAAH	not soluble
MGSDKIHHHHHHMSLHYSVLASGSTGNALYIESEQTRLLVDAGLTGKAMLALFDQIHRSPEKIDGLFVTHEHSDHIKGVGIMARKYNIPLYANEKTWAAMEAKIGKIDPALKFLWEVGEVKQFGDIEVESFNVSHDAADPMFFQFAHEGKRLAHITDTGYVSDRMKGVIRGADAYIFEANHDIGMLQMGHYPWSVKRRILGDYGHVSNEDAAIAMSEVLDDRTKRIHMAHLSKDNNMKELARMSVSQTLASRDVDLSKIQLLDTDPVIPTPLLKL	not soluble
MGSDKIHHHHHHMSLILELKNISKHYPGVKALETVSLRLFSGEVHALLGENGAGKSTLVKVMTGAQSKDGGEIIFLNEKQHFNTPIEAQKIGISTVYQEVNLVPNLTVAQNLFLGHEPKRFGLIHFQKMYADARTVLTQFKLDIDVSAPLSSYSIAVQQLIAIARGVAMSAKVLVLDEPTASLDADEVQVLFGILNQLKQKGVAIVFITHFLDQVYQISDRITVLRNGRFIGEYLTSELPQPQLIEAMLGRSLQQHLVEKTSAEQTTNGTSAVLLSLEGVSVKGSIQSMNLTVPKGQAVGLAGLLGSGRSEVCNAVFGLDLLDSGSIHLAGKKLHLSHPVDAINAGIALCPEDRKVDGIIGPLSIRENIILALQARVGWWRCLSKTRQQEIAQFFIDKLQIATPDADKPIEQLSGGNQQKVILARWLAIEPILLVLDEPTRGIDIGAHAEIIKLIRTLCDDGMSLLVASSELDELVAFSNKVVVLRDRYAVRELSGSELTSQHVMQAIAEG	not soluble
MGSDKIHHHHHHMSLQISLVNNISQIGSQAWHALFGSEHPFTRYEYLLALESSGACSAQTGWQPRHLIVIEKAAVTENPHSAAAKTDNILALMPLYEKHHSYGEYVFDWAWAEAYERHGLAYYPKLLCAVPFTPVTGTRLAMDSRLDVGQQDAVWTAVVDFLQQQIMTQGYSSWHYLFTNATQSAVLAQAHLTPPSQSQSNQAQRNQTQALQPQANSQASAIKGQPIARLGTQFHWFNRGYRQFDDFLQVMTSRKRKNIQKERAAISKFELSFEFIHGDNITSSQWRSFSLCYQQTYLKRSGHTGYLNSEFFQAIGTSMADAIRLLRVSDKAGKDIAYALYFASDSRLYGRYWGAFEDIPGLHFEACYYQGIEYAIAQGLSCFDAGAQGEHKVLRGFEPIETHSFHAIAHEGFKGAIEDFCQQERRNMQIYMAEQAKNLPYKNSQ	not soluble
MGSDKIHHHHHHMSLQRPDEKLKSDVLIGVGLRHQHFTEALTTPSNIDFVEVHSENFFAQGGATQSVLAQASEKYAISLHSTAMGLGSAQGVPSHYLQKLKQLASTCNPILMSDHACFSWSQLKGQQVHAGDLLPLAYSEQTLMVLSHNIDRVQQSLGRSLLVENLSAYIQYSHACMPETEFLVRLAELTGCKLLVDLNNIIVTANNINAAQPLDYAQQWLAEIPTDMVGEIHLAGFTEVKEGELIIDDHSQAVSSQGWQLYRSALERFGKIPTLVEWDNNLPSWHTLVAEADKARMIAKQVFGDNNSSKITTAMTGLESEFIHE	not soluble
MGSDKIHHHHHHMSNLLEVNSLNVQFNYDETTVQAVKNVSFELRKKHILGIVGESGSGKSITAKSILGLLPDYPDHTLTGEIIFNGQSLNNLSTSALQQIRGKDISMIFQDPLSSLNPRLTIGKQITEVLFQHKRVSKSEAKSMTINILEKVGIKHATRQFDAYPHELSGGMRQRVMIAMALILKPQILIADEPTTALDASTQNQLLQLMKSLYEYTETSIIFITHDLGAVYQFCDDVIVMKDGSVVESGTVESIFKSPQHTYTKRLIDAIPDIHQTRPPRPLNNDILLKFDRVSVDYTSPSGSLYRAVNDINLAIRKGETLGIVGESGSGKSTLAKTVVGLKEVSEGFIWYNELPLSLFKDDELKSLRQEIQMIFQDPFASINPRFKVIDVIKRPLIIHGKVKDNDDIIKTVVSLLEKVGLDQSFLYRYPHELSGGQRQRVSIARALAVEPKVIVCDEAVSALDVSIQKDIIELLKQLQLDFGITYLFITHDMGVINEICDRVAVMKNGEIVELNNTEDIIKHPQSDYAKQLISEVAVIAK	not soluble
MGSDKIHHHHHHMSNNLLVLQSDFGLVDGAVSAMIGVALQEAPTLGIHNLTHEITPYNIFEASYRLFQTVEYWPQGTTFVSVVDPGVGSDRKSVVALTSRNQYIVTPDNGTLSYIKKHVGIKAVREISEIENRRRNTELSYTFHGRDVYAFTGAKLASDHISFEEVGPELAIESIVELPVVETVIEDNLVRGAVDILDVRFGSLWTSITREEFYTLKPEFNDRFEVTIYNNDMLVYQNQVTYGKSFAAVRIGQPIIYINSLYRVGVAINQGSFANAYNVGVGPQWRIEIKKLN	not soluble
MGSDKIHHHHHHMSNQLENAKNLYLRGIRDGEIKEVHENYMGASYTQHSTGVPDEKEGFAAFFEDFFKRNPKREINIVRAIEDGNFVFVHVHQKLNDGEAEWVTADIFRSDENGRIVEHWDVIDAYPKTIDQTDPIYADFELTDLDKTEDNKKIVRRFLVDVFQNGEIDKFDDYVAANLIQHNQEIAQGGAAYKDYLVDKAVNYDFVFKVMGQGDYVVAYSKVWIAGQDYAHFDIYRLKDGKIVEHWDNKEVMPDKKDLTNLGKF	not soluble
MGSDKIHHHHHHMSQAKATFSTEHDLNTSEQQAFWQSVVQDTLITADGITLAYMMVKHPQAHTAIVLSSGRVESYLKYQELVFDLYQQGYSVYAIDHRGQGLSDRMTINPHMGHVRRFNDYIDDFALFMQKKVLPQNDKQLMLLGHSMGGAIGTLYLKQHPDIFTAAAFSAPMYGIKLPMPKAFVRWLASKLDTTLNGGEPNYVLGGQNYKPVPFKGNELTHCQSRYQAYRDLYDAAPKLQLGSPTNRWLTESLDAADTCVLATAQIRTPILILQASEDKIVDNAAQNLAVSTHCQLKVIAGAAHEIFMEKDAYRNQALNYALDFFKRFAIKDEDKQAG	not soluble
MGSDKIHHHHHHMSQHETPLYTGLKKHASRQPVQFHIPGHKKGAGMDPEFRQFIGENALSIDLINIEPLDDLHAPKGIIKQAQDLAAEAFGADHTFFSVQGTSGAIMTMVMAVCGPGDKIIIPRNVHKSIMTAIVFSGAVPIFIHPEIDNELGISHGITLESAKRALTEHPDAKGLLVINPTYFGVAADLKSIVELAHSFDVPVLVDEAHGVHIHFHDELPLSAMQAGADIAATSVHKLGGSLTQSSILNMREGLVSKDRVQSILSMLTTTSTSYLLLASLDVARKRLATEGRQLAEETLKLANQTRDRLNQIEGIYCVGSEILGSKAAYSYDPTKLIISVKSLGLTGHDVEKWLRESFNIEVELSDLYNILCIFTPGDSQNDADRLVEALTEIAQQMSEQDVTHQQTEVLLPEIPLLAMTPRDAFYANTEVIPLKEASGRIIAEFVMVYPPGIPIFIPGEIITEENISYIFKNLDAGLPVQGPEDSTLHMIRVIKEQKAIQ	not soluble
MGSDKIHHHHHHMSQVIPASSQEKRRERIVSYVTRHGFARVEALAELFEVSAMTIHRDLEALAADNLVERIRGGARSVSPSMSELAVEQRRHLHRTVKEALCTAAARLIPEGAVVAIDDSTTLESLVEKLPQRSPSALITHSLKTMADHRVRAGMSDIRLIACAGLYFAETDSFLGKATSAQLNELSADISFVSTTAVRATGEVPALFHPDMEAADTKRALIGIGSVRVLVVDSSKFGSAGVFKVASIEEFDHIIIDQQCTREQRDLLRNSRAQIHVIDHNGDEILDTPTEEDF	not soluble
MGSDKIHHHHHHMSQVVIAVLANAGGVGKSTLSVHLAYEVSRRKLKVALLDLDPQRSLDVFCGLEAAEAEKTMFKVLSKDFIGDWALASAWDEPRIEVCQGHPLLAEIANELVIRKRGEYMLADRLQKYSLPHDLVIVDCPATLGMLNVNALAAATHILVPIQLEMKAISGSAELVEWCMNTSEELQLTPKPQILGFVPSMYDETVAMHRQYHSQLPEIALQLDIKLYPKIRSSNEFKNASAHGLPLHKYRNKHPACKDFKQIADDVIQLIKNK	not soluble
